The values that follow are results of earlier work, collected in article PMC4739856.

Where “and” joins values, the source holds several entries; their conditions need not be identical. Equal values may be shown once. Read-outs that look alike come from different tables or passages of the source.

One may read the pKa as the pH at which an ionisable group is half protonated.

Series [1] deals with T1, His119 (UniProt position 145, PYVPVHFDASV). Briefly: NMR. To be noted: apo (ligand-free) RNase A.
The target of series [2] is T2, His12 (UniProt position 38, KFERQHMDSST). The experiment in a line: NMR. To be noted: apo (ligand-free) RNase A.
Series [3] has as its target T1, His119.
Series [4] addresses T2, His12.

With “Ribonuclease A (RNase A, pancreatic ribonuclease) (Bos taurus)”, the pKa is 6.03 and 6.34 in series [1]; 5.87 and 6.18 in series [2]; 6.2 in series [3] (apo (ligand-free) RNase A); 7.4 in series [3] (complex with 3'-CMP); 5.8 in series [4] (apo (ligand-free) RNase A); 8.0 in series [4] (complex with 3'-CMP).
